B1: glmS ribozyme (parent)
chain: AUAAAAGCGCCAGAACUACAGAAAUGUAGUUGACGAGGAGGAGGUUUAUCGAAUUUUCGGCGGAUGCCUCCAAA

Holding throughout (conditions): with glucosamine-6-phosphate
The variants in data set [1] derive from B1. The data set is described as follows: kcat; higher = faster cleavage; RNA array. In a few lines: (§1)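 Barcoded ribozyme variants on sequenced MiSeq chips were transcribed in situ by E. coli RNA polymerase and followed at 37 °C through a hybridised Cy3 probe. Glucosamine-6-phosphate at 40 μM to 10 mM in HEPES/KCl/Mg(OAc)2 buffer was flowed in, and tiles were imaged over ~14 h. Signals were normalised to baseline and to non-cleaving reference variants, and per-tile medians were fit to one- or two-exponential decays to give kobs. Weighted Michaelis–Menten fits across concentrations gave kcat and KM.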

In data set [2] the parent is B1. The data set is described as follows: KM; higher = weaker cofactor use; RNA array. In a few lines:
as §1

Variants of B1 are the subject of data set [3]. The data set is described as follows: self-cleavage kobs at 40 uM GlcN6P; higher = faster cleavage; RNA array. The method in brief: as §1
Data set [4] covers variants of B1. The data set is described as follows: self-cleavage kobs at 160 uM GlcN6P; higher = faster cleavage; RNA array. In a few lines: as §1
The variants in data set [5] derive from B1. The data set is described as follows: self-cleavage kobs at 640 uM GlcN6P; higher = faster cleavage; RNA array. In a few lines:
as §1

The variants in data set [6] derive from B1. The data set is described as follows: self-cleavage kobs at 2500 uM GlcN6P; higher = faster cleavage; RNA array. The method in brief:
as §1

In data set [7] the parent is B1. The data set is described as follows: self-cleavage kobs at 10000 uM GlcN6P; higher = faster cleavage; RNA array. The method in brief: as §1

± gives the standard error. For some of these results: Variants at the floor of the assay were thinned out.

Broadly, the kcat is the maximal rate divided by the concentration of active sites. The KM is the substrate concentration at which the rate is half of its maximum. For the variant AUAAAAGCGCCAGAACUACAGAAAUGUAGUUGACGAGGUGGAGGUUUAUCGAAUUUUCGGCGGAUGCCUCGAAA [A39U C71G], in data set [1], the kcat worked out at 0.00162 ± 0.00048 s⁻¹. In addition, the KM in data set [2] came to 3300 ± 1600 µM. Further, the “self-cleavage kobs at 40 uM GlcN6P” value in data set [3] was 4.48e-05 ± 8.3e-06 s⁻¹. Also, the “self-cleavage kobs at 160 uM GlcN6P” value in data set [4] worked out at 0.000107 ± 2e-05 s⁻¹. In addition, in data set [5], the “self-cleavage kobs at 640 uM GlcN6P” value amounted to 0.00022 ± 2.8e-05 s⁻¹. Besides, in data set [6], the “self-cleavage kobs at 2500 uM GlcN6P” value is 0.00066 ± 9.6e-05 s⁻¹. Besides, the “self-cleavage kobs at 10000 uM GlcN6P” value in data set [7] came out at 0.00126 ± 0.00011 s⁻¹.
AUAAAAGCGCCAGAACUACAGAAAUGUAGGUGACGAGGAGGAGGUUUAUCGAACUUUCGGCGGAUGCCUCCAAA [U30G U54C]: the kcat in data set [1] came out at 0.00885 ± 0.00078 s⁻¹. In data set [2], the KM is 2170 ± 270 µM. In addition, in data set [3], the “self-cleavage kobs at 40 uM GlcN6P” value worked out at 0.000148 ± 2.5e-05 s⁻¹. Further, in data set [4], the “self-cleavage kobs at 160 uM GlcN6P” value is 0.000617 ± 0.00011 s⁻¹. The “self-cleavage kobs at 640 uM GlcN6P” value in data set [5] stood at 0.00235 ± 0.00041 s⁻¹. Further, in data set [6], the “self-cleavage kobs at 2500 uM GlcN6P” value was 0.00471 ± 0.0008 s⁻¹. Also, the “self-cleavage kobs at 10000 uM GlcN6P” value in data set [7] is 0.00714 ± 0.001 s⁻¹.
Turning to AUAAAAGCGCCAGAACUACAGAAAUGUAGUUGACGAGGAGGAGGUUUGUCGAAUAUUCGGCGGAUGCCUCCAAA [A48G U55A], the kcat in data set [1] came to 0.000106 ± 2.6e-06 s⁻¹. For the same variant, the KM in data set [2] worked out at 1160 ± 180 µM. Moreover, the “self-cleavage kobs at 2500 uM GlcN6P” value in data set [6] was 7.8e-05 ± 3.7e-05 s⁻¹. In addition, in data set [7], the “self-cleavage kobs at 10000 uM GlcN6P” value came out at 9.5e-05 ± 8.9e-06 s⁻¹.
Take AUAAAAGCGCCAGAACUACAGAAAUGUAGUUGCCGAAGAGGAGGUUUAUCGAAUUUUCGGCGGAUGCCUCCAAA [A33C G37A]: the kcat in data set [1] was under 1e-05 s⁻¹. Besides, in data set [3], the “self-cleavage kobs at 40 uM GlcN6P” value is under 1e-05 s⁻¹. In addition, in data set [4], the “self-cleavage kobs at 160 uM GlcN6P” value was under 1e-05 s⁻¹.
Take AUAAAAGCGUCAGAACUACAGAAAUGUAGUUGACGAGGAGGAGGUUUAUCGAAUUUUCGGCGAAUGCCUCCAAA [C10U G63A]: in data set [1], the kcat is under 1e-05 s⁻¹. For the same variant, in data set [5], the “self-cleavage kobs at 640 uM GlcN6P” value was under 1e-05 s⁻¹. The “self-cleavage kobs at 2500 uM GlcN6P” value in data set [6] is under 1e-05 s⁻¹.
On to AUAAAAGCGCCAGAACUACAGAAAUGUAGUGGUCGAGGAGGAGGUUUAUCGAAUUUUCGGCGGAUGCCUUCAAA [U31G A33U C70U], for which the kcat in data set [1] was determined as 9.54e-05 ± 1.9e-05 s⁻¹. For the same variant, in data set [7], the “self-cleavage kobs at 10000 uM GlcN6P” value amounted to 7.8e-05 ± 2e-05 s⁻¹.
In the case of AUAAAAGCGCCAGAAAUACAGAAAUGUAGUUGACGAGGAGGAGGUUUAUCGACUUUUCGGCGGAUGCCUCCAAA [C16A A53C], the kcat in data set [1] came to 0.000269 ± 1.8e-05 s⁻¹. In addition, the KM in data set [2] was determined as 1770 ± 270 µM. Besides, the “self-cleavage kobs at 160 uM GlcN6P” value in data set [4] worked out at 3.05e-05 ± 1.2e-05 s⁻¹. Besides, the “self-cleavage kobs at 640 uM GlcN6P” value in data set [5] came to 6.66e-05 ± 1.2e-05 s⁻¹. For the same variant, the “self-cleavage kobs at 2500 uM GlcN6P” value in data set [6] is 0.000164 ± 2.3e-05 s⁻¹. The “self-cleavage kobs at 10000 uM GlcN6P” value in data set [7] worked out at 0.000226 ± 2.5e-05 s⁻¹.
As for AUAAAGGCGCCAGAACUACAGAAAUGUAGUUGACGAGGAGGAGGUUUAUCGAUUUUUCGGCGGAUGCCUCCAAA [A6G A53U], in data set [1], the kcat is 0.000303 ± 3.8e-05 s⁻¹. Besides, the KM in data set [2] came to 1940 ± 560 µM. For the same variant, in data set [5], the “self-cleavage kobs at 640 uM GlcN6P” value was determined as 6.78e-05 ± 1.6e-05 s⁻¹. The “self-cleavage kobs at 2500 uM GlcN6P” value in data set [6] is 0.000191 ± 2.7e-05 s⁻¹. Moreover, the “self-cleavage kobs at 10000 uM GlcN6P” value in data set [7] came to 0.000241 ± 3.5e-05 s⁻¹.
Consider AUAAAAGCGCCAGAACUACAGAAAUGUAGAUGACGAGGAGGAGGUUUAUCGAAUUUUCGACGGAUGCCUCCAAA [U30A G60A], for which the kcat in data set [1] is under 1e-05 s⁻¹. Moreover, in data set [3], the “self-cleavage kobs at 40 uM GlcN6P” value is under 1e-05 s⁻¹. In addition, the “self-cleavage kobs at 640 uM GlcN6P” value in data set [5] was under 1e-05 s⁻¹.

The record behind these values is the supplement of paper PMC7125110.
